According to article PMC6451099 (Nucleic Acids Research, 2019):

B1: GST-eEF1BδL fragment of residues 181–367 (domain or fragment, human, UniProt P29692-2 181-367, looked up)
chain: SQALLLAPDGSRRQGTPNTGQQVAVPDLAHQPSPPVNGQPPLGSLQALVREVWLEKPRYDAAERGFYEALFDGHPPGKVRLQERAGLAEGARRGRRDRRGRNILGNKRAGLRRADGEAPSALPYCYFLQKDAEAPWLSKPAYDSAECRHHAAEALRVAWCLEAASLSHRPGPRSGLSVSSLRPNRKM
B2: FLAG-eEF1BδL (purified) (natural protein)
chain: MRSGKASCTLETVWEDKHKYEEAERRFYEHEATQAAASAQQLPAEGPAMNGPGQDDPEDADEAEAPDGGSRRDPRKSQDSRKPLQKKRKRSPKSGLGPADLALLGLSAERVWLDKSLFDQAESSYRQKLADVAAQAAWPPALAPWGLCTHGNQVACHHVTWGIWVNKSSFDQAERAFVEWSQALLLAPDGSRRQGTPNTGQQVAVPDLAHQPSPPVNGQPPLGSLQALVREVWLEKPRYDAAERGFYEALFDGHPPGKVRLQERAGLAEGARRGRRDRRGRNILGNKRAGLRRADGEAPSALPYCYFLQKDAEAPWLSKPAYDSAECRHHAAEALRVAWCLEAASLSHRPGPRSGLSVSSLRPNRKMATNFLAHEKIWFDKFKYDDAERRFYEQMNGPVAGASRQENGASVILRDIARARENIQKSLAGSSGPGASSGTSGDHGELVVRIASLEVENQSLRGVVQELQQAISKLEARLNVLEKSSPGHRATAPQTQHVSPMRQVEPPAKKPATPAEDDEDDDIDLFGSDNEEEDKEAAQLREERLRQYAEKKAKKPALVAKSSILLDVKPWDDETDMAQLEACVRSIQLDGLVWGASKLVPVGYGIRKLQIQCVVEDDKVGTDLLEEEITKFEEHVQSVDIAAFNKI
B3: His-HSF1 (purified) (natural protein, human, UniProt Q00613 1-529, looked up)
chain: MDLPVGPGAAGPSNVPAFLTKLWTLVSDPDTDALICWSPSGNSFHVFDQGQFAKEVLPKYFKHNNMASFVRQLNMYGFRKVVHIEQGGLVKPERDDTEFQHPCFLRGQEQLLENIKRKVTSVSTLKSEDIKIRQDSVTKLLTDVQLMKGKQECMDSKLLAMKHENEALWREVASLRQKHAQQQKVVNKLIQFLISLVQSNRILGVKRKIPLMLNDSGSAHSMPKYSRQFSLEHVHGSGPYSAPSPAYSSSSLYAPDAVASSGPIISDITELAPASPMASPGGSIDERPLSSSPLVRVKEEPPSPPQSPRVEEASPGRPSSVDTLLSPTALIDSILRESEPAPASVTALTDARGHTDTEGRPPSPPPTSTPEKCLSVACLDKNELSDHLDAMDSNLDNLQTMLSSHGFSVDTSALLDLFSPSVTVPDMSLPDLDSSLASIQELLSPQEPPRPPEAENSSPDSGKQLVHYTAQPLFLLDPGSVDTGSNDLPVLFELGEGSYFSEGDGFAEDPTISLLTGSEPPKAKDPTVS

Key:
Experiment in all cases: pull-down
[1] = target: B3
[2] = target: GST-RNF20/FLAG-RNF40 (human, UniProt Q5VTR2 1-975; O75150 1-1001)
[3] = target: B2

GST-RNF20/FLAG-RNF40, sequence (Q5VTR2 whole entry, chain 1 of 2): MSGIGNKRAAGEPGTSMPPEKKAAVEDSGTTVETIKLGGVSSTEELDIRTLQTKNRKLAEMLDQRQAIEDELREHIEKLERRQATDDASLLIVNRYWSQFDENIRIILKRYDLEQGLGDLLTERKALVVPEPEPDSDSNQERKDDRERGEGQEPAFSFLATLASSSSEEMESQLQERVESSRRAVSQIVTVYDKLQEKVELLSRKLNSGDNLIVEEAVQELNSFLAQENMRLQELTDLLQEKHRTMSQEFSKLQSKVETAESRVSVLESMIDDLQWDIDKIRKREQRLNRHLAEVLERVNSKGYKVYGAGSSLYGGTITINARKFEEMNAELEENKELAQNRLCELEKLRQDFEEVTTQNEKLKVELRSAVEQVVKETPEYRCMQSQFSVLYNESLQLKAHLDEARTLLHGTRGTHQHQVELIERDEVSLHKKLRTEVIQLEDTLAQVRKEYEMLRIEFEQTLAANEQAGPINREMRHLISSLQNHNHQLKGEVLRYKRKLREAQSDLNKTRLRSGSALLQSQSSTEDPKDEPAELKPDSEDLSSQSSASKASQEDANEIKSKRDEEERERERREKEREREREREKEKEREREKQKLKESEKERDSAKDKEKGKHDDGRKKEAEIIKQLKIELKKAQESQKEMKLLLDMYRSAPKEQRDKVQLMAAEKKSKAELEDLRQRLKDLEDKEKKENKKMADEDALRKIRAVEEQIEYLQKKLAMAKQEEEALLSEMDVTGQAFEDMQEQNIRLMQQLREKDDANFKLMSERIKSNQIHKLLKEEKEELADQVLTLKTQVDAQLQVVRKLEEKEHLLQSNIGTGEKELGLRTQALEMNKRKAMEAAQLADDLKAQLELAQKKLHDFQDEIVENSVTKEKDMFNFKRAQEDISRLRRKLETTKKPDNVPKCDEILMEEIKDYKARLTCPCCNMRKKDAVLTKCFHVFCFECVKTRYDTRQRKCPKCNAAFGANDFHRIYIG
GST-RNF20/FLAG-RNF40, sequence (O75150 whole entry, chain 2 of 2): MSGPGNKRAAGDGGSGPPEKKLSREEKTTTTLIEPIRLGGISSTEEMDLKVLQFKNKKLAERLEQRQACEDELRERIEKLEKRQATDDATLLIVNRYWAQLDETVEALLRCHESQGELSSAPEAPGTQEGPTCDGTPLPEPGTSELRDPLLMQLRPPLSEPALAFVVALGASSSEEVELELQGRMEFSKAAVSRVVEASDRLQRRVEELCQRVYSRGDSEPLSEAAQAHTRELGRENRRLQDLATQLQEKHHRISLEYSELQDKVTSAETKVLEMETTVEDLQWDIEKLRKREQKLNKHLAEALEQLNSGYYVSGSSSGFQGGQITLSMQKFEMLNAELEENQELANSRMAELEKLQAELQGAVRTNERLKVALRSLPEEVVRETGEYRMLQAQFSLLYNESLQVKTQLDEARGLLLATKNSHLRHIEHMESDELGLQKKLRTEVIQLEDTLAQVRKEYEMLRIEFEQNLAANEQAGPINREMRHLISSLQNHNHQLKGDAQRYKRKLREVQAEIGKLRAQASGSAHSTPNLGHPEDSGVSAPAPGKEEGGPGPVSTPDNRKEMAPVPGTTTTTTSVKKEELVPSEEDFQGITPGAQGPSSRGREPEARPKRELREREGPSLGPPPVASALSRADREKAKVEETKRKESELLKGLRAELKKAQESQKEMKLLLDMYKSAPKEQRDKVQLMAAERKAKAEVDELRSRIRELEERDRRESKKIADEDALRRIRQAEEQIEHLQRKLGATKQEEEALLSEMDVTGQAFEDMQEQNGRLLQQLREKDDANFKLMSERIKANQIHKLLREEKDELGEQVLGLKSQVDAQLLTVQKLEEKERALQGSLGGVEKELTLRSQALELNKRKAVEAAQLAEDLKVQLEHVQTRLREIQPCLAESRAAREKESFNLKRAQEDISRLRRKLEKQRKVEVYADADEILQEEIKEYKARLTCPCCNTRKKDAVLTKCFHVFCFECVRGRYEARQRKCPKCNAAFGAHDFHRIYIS

Binder: B1
binding result [1]: binds

Binder: B2
binding result [2]: binds

Binder: B3
binding result [3]: binds
